Consider two substances from publication PMC3839629.

In test [1] the target is DGK_(Cysless), cysless His6-tagged diacylglycerol kinase from Escherichia coli (Escherichia coli). Kind of test: anion exchange chromatography of subunit exchange.
Test [2] addresses E5-DGK_(Cysless), cysless His6-tagged diacylglycerol kinase with a pentaglutamate tag (Escherichia coli). Kind of test: anion exchange chromatography of subunit exchange.

Turning to “DGK_(Cysless), cysless His6-tagged diacylglycerol kinase from Escherichia coli (enzyme)”, in test [1], the half-life of subunit exchange is above 5 weeks.
For the substance “E5-DGK_(Cysless), cysless His6-tagged diacylglycerol kinase with a pentaglutamate tag (enzyme)”, the half-life of subunit exchange in test [2] is above 5 weeks. For the same substance, in test [1], the percent of the expected final subunit exchange after 7 days came to 10% and the ratio of the mixed peaks to the pure peaks after 7 days was determined as 0.3.
